Laboratory results taken from publication PMC3936849 (2014).

Assays:
Test in all cases: SPR
[1] = molecular target: T1, ALK1 extracellular domain, C-terminal Fc-tagged chimera (UniProt P37023 22-118)
[2] = molecular target: T2, ActRIIb extracellular domain, C-terminal Fc-tagged chimera (UniProt Q13705 19-137)
T2 chain: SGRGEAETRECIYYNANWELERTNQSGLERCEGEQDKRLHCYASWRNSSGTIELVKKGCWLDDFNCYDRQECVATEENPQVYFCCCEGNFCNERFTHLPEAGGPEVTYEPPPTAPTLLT

[3] = molecular target: T3, ActRIIa extracellular domain, C-terminal Fc-tagged chimera (UniProt P27037 20-135)
T3 sequence (P27037 20-135, change not shown): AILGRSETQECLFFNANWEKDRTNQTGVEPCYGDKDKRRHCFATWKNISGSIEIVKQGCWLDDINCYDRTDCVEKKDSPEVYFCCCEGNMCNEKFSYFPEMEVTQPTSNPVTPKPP

[4] = molecular target: T4, BMPRII extracellular domain, C-terminal Fc-tagged chimera (UniProt Q13873 27-150)
T4 chain: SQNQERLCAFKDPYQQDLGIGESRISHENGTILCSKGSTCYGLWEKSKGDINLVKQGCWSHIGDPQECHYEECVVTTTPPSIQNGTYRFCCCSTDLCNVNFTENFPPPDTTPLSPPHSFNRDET

[5] = molecular target: T1, ALK1 extracellular domain, C-terminal …; remark: listed apart in the source
[6] = molecular target: T2, ActRIIb extracellular domain, …
[7] = molecular target: T3, ActRIIa extracellular domain, …; remark: listed apart in the source
[8] = molecular target: T4, BMPRII extracellular domain, C-terminal …

T1 sequence (P37023 22-118, change not shown): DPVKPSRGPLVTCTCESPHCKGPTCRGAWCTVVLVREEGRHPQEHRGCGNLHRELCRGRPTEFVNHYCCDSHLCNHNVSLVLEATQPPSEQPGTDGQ

B1: MB109 (E. coli-derived mature domain of human bone morphogenetic protein-9, refolded functional dimer) (ligand)
chain: MSAGAGSHCQKTSLRVNFEDIGWDSWIIAPKEYEAYECKGGCFFPLADDVTPTKHAIVQTLVHLKFPTKVGKACCVPTKLSPISVLYKDDMGVPTLKYHYEGMSVAECGCR
koff [1]: 0.000884 s⁻¹ | koff [2]: 0.00152 s⁻¹ | koff [3]: 0.0121 s⁻¹ | koff [4]: 0.00153 s⁻¹ | Kd [5]: 0.209 nM | Kd [6]: 0.154 nM | Kd [7]: 4.27 nM | Kd [8]: 0.33 nM
